For assay [1], the target named is carrier-free recombinant human TGF-β1 (human). The assay can be described thus: in vitro binding, RP-HPLC, TGF-β1 quantified by ALP-inducing activity of HPDL cells; purified amelogenin mixed with CF-hTGF-β1 or rh-latent TGF-β1, fractions from RP-HPLC tested in the ALP-HPDL system; ng per mg of amelogenin calculated from standard CF-hTGF-β1 (0.3 ng mL^-1), after dilution correction; details in the Supplementary Methods.

Assay [2] deals with TGF-β1 of the porcine enamel matrix (porcine (endogenous in porcine enamel)). The assay can be described thus: co-elution on RP-HPLC, TGF-β1 quantified by ALP-inducing activity of HPDL cells; amelogenins as purified from enamel (before the in vitro binding); ng of TGF-β1 per mg of amelogenin calculated from standard CF-hTGF-β1 (0.3 ng mL^-1), after dilution correction; complexes formed in vivo.
Sequence of TGF-β1 of the porcine enamel matrix (porcine (endogenous in porcine enamel)) (P07200 279-390): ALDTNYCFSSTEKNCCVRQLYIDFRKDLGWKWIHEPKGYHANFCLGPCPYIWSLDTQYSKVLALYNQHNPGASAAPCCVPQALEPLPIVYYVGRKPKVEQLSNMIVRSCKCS

Sequence of carrier-free recombinant human TGF-β1 (human) (P01137 279-390): as the sequence (P07200 279-390) above

B1: P173 amelogenin (natural protein)
chain: MPLPPHPGHPGYINFSYEVLTPLKWYQNMIRHPYTSYGYEPMGGWLHHQIIPVVSQQTPQSHALQPHHHIPMVPAQQPGIPQQPMMPLPGQHSMTPTQHHQPNLPLPAQQPFQPQPVQPQPHQPLQPQSPMHPIQPLLPQPPLPPMFSMQSLLPDLPLEAWPATDKTKREEVD
B1: the bound TGF-β1, ng against 1 mg of amelogenin in assay [1] is 1.18 ng. Moreover, in assay [2], the original TGF-β1, ng against 1 mg of amelogenin is 0.345 ng.

The record behind these values is PMC5025654.
